In US9289500B2, “Saccharide-peptide hydrogels” (The Regents of the University of California, priority 2013, dated 2016):
Bridges are numbered along the chain shown (N, C = ends). Where no end group is shown, it is not given here. The star is where a group is joined. Acm = CC(=O)NC*

Columns and labels:
TNF-α [1] = biological target: TNF-α (Homo sapiens, UniProt P01375); settings: cited from earlier work
TNF-α [2] = test: TNF-α mediated PUMA mRNA up-regulation in islets; assay type: cell-based; settings: human islets
Description: PUMA and INS Pre-mNRA as markers for islet health in response to cytokine insults. Inflammation mediated proinflammatory cytokines, including Tumor necrosis factor (TNF)-α, Interleukin(IL)-1β, Interferon (IFN)-γ, play an important role on β cell death, leading to primary graft nonfunction. […] Elevated PUMA mRNA by TNF-α or the TNF-α+ and IFN-γ combination correlated with decreased islet function, as indicated by decreased preproinsulin (INS) pre-mRNA expression (r=−0.45, p<0.001) assessed by the single islet gene expression assay (RT-PCR). TNF-α receptor blocker, Etanercept, abolished TNF-α mediated PUMA mRNA up-regulation in human islets. PUMA mRNA and INS pre-mRNA expressions are used herein as markers for islet health under cytokine insults.

IFN-γ = biological target: T1, IFN-γ (Homo sapiens, UniProt P01579); settings: cited from earlier work
T1 sequence (P01579 24-161 limits assumed): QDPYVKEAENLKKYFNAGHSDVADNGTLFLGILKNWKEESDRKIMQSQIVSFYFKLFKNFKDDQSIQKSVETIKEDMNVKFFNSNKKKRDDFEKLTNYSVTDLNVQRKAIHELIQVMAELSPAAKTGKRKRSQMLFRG

[3] = tested on: Peripheral blood mononuclear cells (PBMC); test: In vitro biocompatibility: stimulation assay of PBMC, cytokine mRNA; assay type: cell-based, LEW rat; settings: IFN-γ, CXCL1, IL6, GMCSF mRNA levels
Experimental: In Vitro Biocompatibility Assay of SP Hydrogel by Stimulation Assay of Peripheral Blood Mononuclear Cells (PBMC). PBMC from a normal LEW rat were isolated using Histopaque (Sigma-Aldrich, St. Louis, Mo.). 1×10^6 Cells were incubated with either 0.5 μL phosphate buffered saline (PBS), 0.5 mg vicryl suture, 0.5 mg hydrogel, 0.5 mg VS-polymer, 0.5 mg Cys-polymer, or 5 μg of LPS for 20 hours at 37° C. Differences in Ct between the target and control (Actb) mRNA (ΔCt) were used to quantify the relative level for each sample's mRNA expression.
Ex vivo biocompatibility of soluble polymers and SP hydrogel: An SP hydrogel was formed by in situ crosslinking by mixing a cysteine-functionalized (Cys-polymer) and a vinyl sulfone-functionalized (VS-polymer) saccharide-peptide copolymer under mild conditions, according to protocols presented in Chawla et al., Biomacromolecules (2011) 12:560-567, and Chawla et al., Biomaterials (2012) 33:6052-6060, which are incorporated herein in their entirety. […] The mRNA expression of inflammatory cytokines released by PBMC, including TNF-α (killer cell), IFN-γ (T-cell activation), CXCL1 (IL-8 analog, recruiter), IL6 (killer cell), and GMCSF (antigen presentation) was assessed to detect any immune stimulatory effect.

Chain of TNF-α (Homo sapiens, UniProt P01375) (P01375 77-233 limits assumed, species assumed): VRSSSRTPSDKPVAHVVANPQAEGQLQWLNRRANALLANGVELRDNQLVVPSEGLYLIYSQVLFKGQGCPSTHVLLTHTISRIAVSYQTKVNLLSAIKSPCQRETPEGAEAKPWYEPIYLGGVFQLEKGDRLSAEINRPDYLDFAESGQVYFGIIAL

For “YCWSQYLCY (disulfide 2-8 (inferred)) [antagonizing peptide for TNF-α]”, the “antagonism of TNF-α” value (TNF-α [1]) is given as “potent antagonists”.
For Etanercept, the “TNF-α mediated PUMA mRNA up-regulation” value (TNF-α [2]) was “abolished”.
For “AYC(acm)RDGKIGPPKLDIRKEEKQI (AYC(Acm)RDGKIGPPKLDIRKEEKQI) [antagonizing peptide for IFN-γ; acm: acetamidomethyl]”, the “antagonism of IFN-γ” value (IFN-γ) is given as “potent antagonists”.
In the case of lipopolysaccharide [LPS], the “stimulatory effect / mRNA response compared to LPS” value [3] is reported as “highest stimulatory effect”.
